The source of these data is patent US20220340682A1 (Sanofi, published 2022).

The target in experiment [1] is T1, cCEACAM5, M. fascicularis CEACAM5 ECD (35-688) (Macaca fascicularis).
T1 construct: ECD followed by a 24 amino acid extension containing a His-Tag; also called cynomolgus CEACAM5; monkey CEACAM5
T1 chain: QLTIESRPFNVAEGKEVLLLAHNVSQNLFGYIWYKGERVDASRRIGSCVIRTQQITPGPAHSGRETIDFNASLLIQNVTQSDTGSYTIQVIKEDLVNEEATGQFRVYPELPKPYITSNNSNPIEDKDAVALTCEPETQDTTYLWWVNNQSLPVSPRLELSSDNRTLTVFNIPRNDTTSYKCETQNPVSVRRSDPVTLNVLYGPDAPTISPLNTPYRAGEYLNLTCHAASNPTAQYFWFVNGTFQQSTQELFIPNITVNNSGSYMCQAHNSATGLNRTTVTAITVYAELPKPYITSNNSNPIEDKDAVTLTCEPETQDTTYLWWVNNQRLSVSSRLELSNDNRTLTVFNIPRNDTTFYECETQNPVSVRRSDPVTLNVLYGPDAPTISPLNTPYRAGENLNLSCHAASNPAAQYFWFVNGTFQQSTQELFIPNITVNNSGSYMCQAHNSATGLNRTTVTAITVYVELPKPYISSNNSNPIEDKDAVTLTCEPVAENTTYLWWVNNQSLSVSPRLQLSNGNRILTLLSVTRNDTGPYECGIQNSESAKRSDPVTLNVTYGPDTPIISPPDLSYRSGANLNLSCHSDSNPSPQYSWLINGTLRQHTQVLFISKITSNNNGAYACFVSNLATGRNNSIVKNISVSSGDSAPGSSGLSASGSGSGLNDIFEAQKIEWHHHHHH
Kind of experiment: ELISA. In general terms: In an ELISA, binding on a coated surface is turned into a signal by an enzyme label.

The target in experiment [2] is T2, cCEACAM1, M. fascicularis CEACAM1 ECD (35-428) (Macaca fascicularis).
T2 construct: With 24 amino acid extension containing a His-Tag; also called cynomolgus CEACAM1
T2 chain: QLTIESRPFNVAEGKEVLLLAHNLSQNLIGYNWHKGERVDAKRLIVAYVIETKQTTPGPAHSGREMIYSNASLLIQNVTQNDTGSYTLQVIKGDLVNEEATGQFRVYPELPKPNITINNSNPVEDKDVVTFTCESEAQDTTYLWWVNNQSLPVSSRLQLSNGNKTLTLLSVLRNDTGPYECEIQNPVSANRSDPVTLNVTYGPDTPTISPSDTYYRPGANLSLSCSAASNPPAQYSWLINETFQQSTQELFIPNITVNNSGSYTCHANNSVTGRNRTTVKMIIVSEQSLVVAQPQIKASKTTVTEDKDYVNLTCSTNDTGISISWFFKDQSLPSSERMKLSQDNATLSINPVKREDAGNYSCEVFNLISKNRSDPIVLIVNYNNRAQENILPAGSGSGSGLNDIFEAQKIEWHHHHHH
Kind of experiment: ELISA.

The target in experiment [3] is T3, cCEACAM6, M. fascicularis CEACAM6 ECD (35-327) (Macaca fascicularis).
T3 construct: With 24 amino acid extension containing a His-Tag; also called cynomolgus CEACAM6
T3 chain: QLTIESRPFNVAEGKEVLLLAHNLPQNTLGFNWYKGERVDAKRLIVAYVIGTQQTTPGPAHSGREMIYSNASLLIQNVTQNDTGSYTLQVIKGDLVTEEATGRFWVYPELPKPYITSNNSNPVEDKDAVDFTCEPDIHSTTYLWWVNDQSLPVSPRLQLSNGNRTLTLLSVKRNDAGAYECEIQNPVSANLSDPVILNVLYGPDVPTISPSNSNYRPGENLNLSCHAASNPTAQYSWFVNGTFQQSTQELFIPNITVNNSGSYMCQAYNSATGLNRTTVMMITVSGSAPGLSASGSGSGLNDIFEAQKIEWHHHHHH
Description: ELISA.

Experiment [4] addresses T4, human CEACAM5 expressed on the surface of tumor cells (human, UniProt P06731 35-685).
T4 construct: Endogenous CEACAM5 of human tumor cells; also called hCEACAM5 on MKN45 cells; CEACAM5 on CR-IGR-034P primary colon tumor cells
T4 sequence: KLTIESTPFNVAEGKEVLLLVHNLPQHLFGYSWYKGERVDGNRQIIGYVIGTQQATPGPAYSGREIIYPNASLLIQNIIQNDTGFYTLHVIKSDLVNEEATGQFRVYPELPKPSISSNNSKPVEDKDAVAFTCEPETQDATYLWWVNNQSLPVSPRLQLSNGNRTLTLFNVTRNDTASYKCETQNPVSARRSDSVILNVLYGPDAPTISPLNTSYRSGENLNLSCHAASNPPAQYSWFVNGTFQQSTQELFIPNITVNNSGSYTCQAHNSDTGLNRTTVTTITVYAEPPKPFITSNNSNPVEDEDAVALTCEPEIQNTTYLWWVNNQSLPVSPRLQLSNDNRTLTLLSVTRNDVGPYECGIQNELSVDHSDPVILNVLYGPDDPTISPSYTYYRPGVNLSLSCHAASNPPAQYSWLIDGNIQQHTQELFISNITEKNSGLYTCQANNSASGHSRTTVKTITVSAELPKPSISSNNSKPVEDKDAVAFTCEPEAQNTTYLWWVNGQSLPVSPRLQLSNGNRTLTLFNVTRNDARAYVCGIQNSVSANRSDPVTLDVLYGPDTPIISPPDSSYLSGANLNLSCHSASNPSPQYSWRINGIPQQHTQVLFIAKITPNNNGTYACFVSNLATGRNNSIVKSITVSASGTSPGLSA
Kind of experiment: apparent KD, flow cytometry on CR-IGR-034P primary colon tumor cells. How it is done:
Advanced human primary colon tumor CR-IGR-034P (Julien et al., Clin Cancer Res Oct. 1, 2012 18:5314-5328) was obtained from Patient-derived xenograft in mice. Tumor CR-IGR-034P was enzymatically dissociated using collagenase Type IV (Invitrogen; #17104-019) and deoxyribonuclease I (Invitrogen; #18047-019) for 1 h at […], Cell viability was estimated by Viacount application using Guava® easyCyte™ 8HT Flow Cytometry System. […] 100 μL/well of goat anti-mouse IgG conjugated with Alexa647 (Invitrogen; # A2135) or goat anti-human IgG conjugated with Alexa488 (Invitrogen; # A11013) was added for 45 min at 4° C. and washed three times with PBS 1% BSA. The antibody binding was evaluated after centrifugation and resuspension of cells by adding 200 pliwell PBS 1% BSA and read using Guava® easyCyte™ 8HT Flow Cytometry System. Apparent KD and EC50 values were estimated using BIOST@T-BINDING and BIOST@T-SPEED softwares, respectively.
(Flow cytometry measures light scatter and fluorescence of single cells or particles in a stream.)

B1: huMAb2-3 (antibody, human IgG1, kappa, V domains shown)
VH: EVQLQESGPGLVKPGGSLSLSCAASGFVFSSYDMSWVRQTPERGLEWVAYISSGGGITYAPSTVKGRFTVSRDNAKNTLYLQMNSLTSEDTAVYYCAAHYFGSSGPFAYWGQGTLVTVSS
VL: DIQMTQSPASLSASVGDRVTITCRASENIFSYLAWYQQKPGKSPKLLVYNTRTLAEGVPSRFSGSGSGTDFSLTISSLQPEDFATYYCQHHYGTPFTFGSGTKLEIKR
notes: Humanized MAb2, human IgG1 / Ckappa; also called MAb2_VL1cVH1a-IgG1
Take B1: the “percentage of binding compared to full binding with cynomolgus CEACAM5” value (“percentage of binding” for short) in experiment [1] was 100%; in experiment [2], 0.3%; in experiment [3] it was 0.4%.

B2: huMAb2-1 (antibody, V domains shown)
VH: EVQLQESGPGLVKPGGSLSLSCAASGFVFSSYDMSWVRQTPERRLEWVAYISSGGGITYFPSTVKGRFTVSRDNAKNTLYLQMNSLTSEDTAIYYCAAHYFGSSGPFAYWGQGTLVTVSA
VL: DIQMTQSPASLSASVGDTVTITCRASENIFSYLAWYQQKPGKSPKLLVYNTKTLAEGVPSRFSGSGSGTQFSLTISSLQPEDFGSYYCQHHYGTPFTFGSGTKLEIK
notes: Humanized MAb2 (VL1 + VH1) fused to human IgG1 and human Ckappa constant domains; also called MAb2_VL1VH1-IgG1; MAb2VL1VH1-IgG1
B2: the “percentage of binding” value worked out at 100% in experiment [1], 0.3% in experiment [2] and 0.3% in experiment [3].

B3: chMAb2 (antibody, human IgG1, kappa, V domains shown)
VH: EVQLQESGGVLVKPGGSLKLSCAASGFVFSSYDMSWVRQTPEKRLEWVAYISSGGGITYFPDTVQGRFTVSRDNAKNTLYLQMNSLKSEDTAIYYCAAHYFGSSGPFAYWGQGTLVTVSA
VL: DIQMTQSPASLSASVGETVTITCRASENIFSYLAWYQQKQGKSPQLLVYNTKTLAEGVPSRFSGSGSGTQFSLKINSLQPEDFGSYYCQHHYGTPFTFGSGTKLEIKR
notes: Chimeric, human IgG1, Ck isotype; also called MAb2-IgG1; chimeric MAb2
For the molecule B3, the “percentage of binding” value in experiment [1] turned out to be 100%; in experiment [2], 0.2%; in experiment [3], 0.3%.

B4: huMAb2-2 (antibody, V domains shown)
VH: EVQLQESGPGLVKPGGSLSLSCAASGFVFSSYDMSWVRQTPERGLEWVAYISSGGGITYAPSTVKGRFTVSRDNAKNTLYLQMNSLTSEDTAVYYCAAHYFGSSGPFAYWGQGTLVTVSS
VL: DIQMTQSPASLSASVGDRVTITCRASENIFSYLAWYQQKPGKSPKLLVYNTKTLAEGVPSRFSGSGSGTDFSLTISSLQPEDFATYYCQHHYGTPFTFGSGTKLEIK
notes: Humanized MAb2 (VL1a + VH1a) fused to human IgG1 and human Ckappa constant domains; also called MAb2_VL1aVH1a-IgG1; MA2_VL1aVH1a-IgG1
Take B4: the “percentage of binding” value in experiment [1] was 100%; in experiment [2] it was 0.3%; in experiment [3], 0.3%.

B5: huMAb2-4 (antibody, human IgG1, kappa, V domains shown)
VH: EVQLQESGPGLVKPGGSLSLSCAASGFVFSSYDMSWVRQTPERRLEWVAYISSGGGITYFPSTVKGRFTVSRDNAKNTLYLQMNSLTSEDTAIYYCAAHYFGSSGPFAYWGQGTLVTVSA
VL: DIQMTQSPASLSASVGDTVTITCRASENIFSYLAWYQQKPGKSPKLLVYNTRTLAEGVPSRFSGSGSGTQFSLTISSLQPEDFGSYYCQHHYGTPFTFGSGTKLEIKR
notes: Humanized MAb2, human IgG1 / Ckappa; also called MAb2_VL1d VH1-IgG1; MAb2_VL1dVH1-IgG1
For the molecule B5, the “percentage of binding” value in experiment [1] worked out at 100%; in experiment [2] it was 0.3%; in experiment [3] it was 0.3%.

B6: antibody MAb4 (antibody, IgG1, V domains shown)
VH: EVQLVESGGGLVKPGGSLKLSCAASGFTFSSYDMSWVRQTPEKRLEWVAFISSYGGRTYYADTVKGRFTISRDNAKNTLYLQMSSLKSEDTAMFYCAAHYFGTSGPFAYWGQGTLVTVSA
VL: DIQMTQSPASLSASVGETVTITCRASENIYSYFAWYQQKQGKSPQLLVYNAKILAEGVPSRFSGSGSGTQFSLKINSLQPEDFGTYYCQHHYGIPFTFGSGTKLELK
notes: Murine monoclonal from hybridoma, IgG1, kappa
Regarding B6, the Kd in experiment [4] came to 0.16 nM.

B7: antibody MAb5 (antibody, IgG1, V domains shown)
VH: ELQLVESGGVLVKPGGSLKLSCAASGFAFSSYDMSWVRQTPEKRLEWVTYINSGGGITYYPDTVKGRFTISRDNARNTLYLQMSSLKSEDTAIYYCTAHYFGSSGPFAYWGQGTLVTVSA
VL: DIQMTQSPASLSASVGETVTITCRASENIYSYLAWYQQKQGKSPQLLVYNAKTLTEGVPSRFSGSGSGTQFSLKINSLQPEDFGSYYCQHHYGTPFTFGSGTKLEIK
notes: as for B6
As to B7, in experiment [4], the Kd is 0.5 nM.

B8: antibody MAb1 (antibody, IgG1, V domains shown)
VH: EVMLVESGGGLVKPGGSLKLSCAASGFTFSSYAMSWVRQTPEKRLEWVATISSGGSYIYYLDSVKGRFTISRDNAKNTLYLQMSSLRSEDTAMYYCARPAYYGNPAMDYWGQGTSVTVSS
VL: DILMTQSQKFMSTSVGDRVSVTCKASQNVGTNVAWYQQKPGQSPKPLIYSASYRYSGVPDRFTGSGSGTDFTLTISNVQSEDLAEYFCQQYNSYPLYTFGGGTKLEIK
For the molecule B8, the Kd in experiment [4] was 1.92 nM.

B9: antibody MAb3 (antibody, IgG1, V domains shown)
VH: EVKLVESGGGLVKPGGSLTLPCAASGFTFSRYAMSWVRQTPEKRLEWVASISSGGDTYYPDSVKGRFTVSRDNARNILFLQMSSLRSEDTGMYYCARVNYYDSSFLDWWGQGTTLTVSS
VL: DIVMTQSQRFMSTLEGDRVSVTCKASQNVGTNVAWYQQKPGQSPKALIYSASYRYSGVPDRFTGSGSGTDFTLTISNVQSEDLAEYFCQQYNNYPLYTFGGGTKLEIK
notes: as for B6
B9: the Kd in experiment [4] came to 1.01 nM.
